Test results taken from article PMC3718342.

Target: T1, 6His-Scy (recombinant, from E. coli)
T1 chain: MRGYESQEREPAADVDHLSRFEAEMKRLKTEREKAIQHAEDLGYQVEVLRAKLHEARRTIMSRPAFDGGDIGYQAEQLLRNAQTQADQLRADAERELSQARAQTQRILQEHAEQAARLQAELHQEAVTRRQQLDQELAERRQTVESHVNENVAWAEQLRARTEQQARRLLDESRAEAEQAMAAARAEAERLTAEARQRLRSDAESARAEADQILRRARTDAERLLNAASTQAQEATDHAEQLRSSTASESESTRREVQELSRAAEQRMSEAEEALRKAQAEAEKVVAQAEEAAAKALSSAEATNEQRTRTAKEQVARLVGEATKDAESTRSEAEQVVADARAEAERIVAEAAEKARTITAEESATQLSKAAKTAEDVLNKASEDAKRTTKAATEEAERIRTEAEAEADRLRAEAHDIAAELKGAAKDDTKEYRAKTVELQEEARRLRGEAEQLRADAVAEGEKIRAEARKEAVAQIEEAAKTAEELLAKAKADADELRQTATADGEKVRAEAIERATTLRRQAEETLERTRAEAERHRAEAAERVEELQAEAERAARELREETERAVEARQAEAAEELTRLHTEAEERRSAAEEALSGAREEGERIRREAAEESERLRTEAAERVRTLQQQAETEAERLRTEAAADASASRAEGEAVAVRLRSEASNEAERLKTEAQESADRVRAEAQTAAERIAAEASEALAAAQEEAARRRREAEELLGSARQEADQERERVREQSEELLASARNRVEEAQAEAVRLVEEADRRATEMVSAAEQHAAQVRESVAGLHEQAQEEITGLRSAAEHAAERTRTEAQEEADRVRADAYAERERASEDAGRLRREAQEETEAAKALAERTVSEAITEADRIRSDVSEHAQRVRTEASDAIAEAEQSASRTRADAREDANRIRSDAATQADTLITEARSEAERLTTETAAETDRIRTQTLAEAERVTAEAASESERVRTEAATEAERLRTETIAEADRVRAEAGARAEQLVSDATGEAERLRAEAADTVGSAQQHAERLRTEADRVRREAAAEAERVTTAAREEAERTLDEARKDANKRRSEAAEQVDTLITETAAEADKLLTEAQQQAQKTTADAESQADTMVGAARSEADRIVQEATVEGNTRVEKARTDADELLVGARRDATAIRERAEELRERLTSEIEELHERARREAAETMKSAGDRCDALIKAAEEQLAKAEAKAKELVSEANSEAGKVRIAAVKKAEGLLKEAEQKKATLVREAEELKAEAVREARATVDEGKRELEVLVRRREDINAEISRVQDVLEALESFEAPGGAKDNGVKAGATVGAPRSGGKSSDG
Test: SPR
Settings: chain shown with the change, ParA or ParAScy- (500 RU) immobilized on CM5 in the presence of ATP, read off a plot

B1: ParA (purified recombinant wild type) S249Y; E250V (protein)
chain: MDDTPIGRAAQLAVEALGRAGEGLPRPEQTRVMVVANQKGGVGKTTTTVNLAASLALHGARVLVVDLDPQGNASTALGIDHHADVPSIYDVLVESRPLSEVVQPVPDVEGLFCAPATIDLAGAEIELVSLVARESRLQRAITAYEQPLDYILIDCPPSLGLLTVNALVAGQEVLIPIQCEYYALEGLGQLLRNVDLVRGHLNPTLHVSTILLTMYDGRTRLASQVADEVRSHFGEEVLRTSIPRSVRIYVAPSYGQTVLTYDPGSSGALSYLEAAREIALKGVGVTYDATHAHLGAQNDPSMVEGTQ
In the case of B1, the response (600 nM 6His-Scy, parent: est. 13) is reported as 4.5 RU, the response (1000 nM 6His-Scy, parent: est. 27) is reported as 12 RU and the response (2000 nM 6His-Scy, parent: est. 43) is reported as 17 RU. The response (4000 nM 6His-Scy, parent: est. 53) was 25 RU.
